Results published in patent US11879134.

Experiments:
[1] = system: ThermoCas9; assay: cell_activity; conditions: PAM NNNNCNAA; no cell killing observed
[2] = system: Type I-B Cas complex (Clo1313_2969-2976; Cas3, Cas5, Cas8, Cas6, DevR) (Clostridium thermocellum); assay: cell_activity

GCAUAUUUGUUCUGGUCAAG / GCATATTTGTTCTGGTCAAG / CTTGACCAGAACAAATATGC [ThermoCas9 sgRNA#1 spacer ; pyrF site, ThermoCas9 #1]
activity (% cell killing) [1]: 0

CUUGAAGGCAUGAGGGUGUUUUAUGAAACUUGCAAAU / CTTGAAGGCATGAGGGTGTTTTATGAAACTTGCAAAT / ATTTGCAAGTTTCATAAAACACCCTCATGCCTTCAAG
activity ([2]; no-PAM (GGC) control, target spacer gives 7 CFU/ug): 18000 CFU/µg DNA

AUAAUGACAUUUAUGGUACUGUUGUGGUAAUAGACGA / CAGTTAATAATGACATTTATGGTACTGTTGTGGTAATAGACGA / TCGTCTATTACCACAACAGTACCATAAATGTCATTATTAACTG
activity ([2]; PAM 5'-CAGTTA, plasmid interference, strong spacer promoter, spacer sequence from Table 1 pTY series, scale: fold decrease in transformation efficiency): 10

UGAGAUUGUUGCGGAGUAUGUUGAAUCAUGGGGUGAA / TGAGATTGTTGCGGAGTATGTTGAATCATGGGGTGAA / TTCACCCCATGATTCAACATACTCCGCAACAATCTCA [Type I-B pyrF target spacer ; pyrF site, Type I-B, PAM TTA]
activity (% cell killing) ([2]; PAM 5'-TTA, strain LL1586, chromosomal pyrF, 65.8% with native cas promoter): 99.8
